Laboratory results published in article PMC7418704.

biological target: Biotinylated human ACE2 ectodomain (ACROBiosystems AC2-H82E6), native dimeric form (human) (UniProt Q9BYF1); assay: FACS
Sequence (Q9BYF1 18-740): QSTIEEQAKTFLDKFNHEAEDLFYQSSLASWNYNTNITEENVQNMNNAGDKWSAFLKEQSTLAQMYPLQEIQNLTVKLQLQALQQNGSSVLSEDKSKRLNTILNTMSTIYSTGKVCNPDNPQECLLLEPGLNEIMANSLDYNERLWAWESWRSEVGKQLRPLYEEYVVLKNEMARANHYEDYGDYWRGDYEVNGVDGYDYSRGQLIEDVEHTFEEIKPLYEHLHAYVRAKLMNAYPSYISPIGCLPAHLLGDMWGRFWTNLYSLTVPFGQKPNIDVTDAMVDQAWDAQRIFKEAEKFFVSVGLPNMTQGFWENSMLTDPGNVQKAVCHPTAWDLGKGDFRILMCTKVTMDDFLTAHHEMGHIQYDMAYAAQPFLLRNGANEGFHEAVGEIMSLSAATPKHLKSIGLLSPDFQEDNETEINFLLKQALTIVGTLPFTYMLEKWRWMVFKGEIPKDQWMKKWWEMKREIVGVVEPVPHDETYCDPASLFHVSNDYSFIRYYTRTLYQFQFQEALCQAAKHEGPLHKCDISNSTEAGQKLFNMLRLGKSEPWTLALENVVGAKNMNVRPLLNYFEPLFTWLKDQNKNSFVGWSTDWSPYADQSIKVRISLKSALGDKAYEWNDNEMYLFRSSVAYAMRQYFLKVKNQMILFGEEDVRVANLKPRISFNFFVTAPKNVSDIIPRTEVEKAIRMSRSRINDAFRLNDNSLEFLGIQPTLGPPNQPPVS

Substance	Kd [nM]
ZXC21 RBD, yeast-displayed	> 1000
WIV1 RBD, yeast-displayed	0.017
ZC45 RBD, yeast-displayed	> 1000
